From doi:10.1101/2021.08.09.455701 (bioRxiv, 2021) come the findings set out here.

Data set [1] concerns the target RNase J K649Q (His-tagged) (Helicobacter pylori) (UniProt P56185). Kind of data set: AUC.
Data set [2] concerns the target RNase J K649A (His-tagged) (Helicobacter pylori) (UniProt P56185). Briefly: AUC.
In data set [3] the target is RNase J (His-tagged, wild type) (Helicobacter pylori) (UniProt P56185). Kind of data set: AUC.
In data set [4] the target is RNase J D185A (His-tagged) (Helicobacter pylori) (UniProt P56185). Kind of data set: AUC.
Data set [5] deals with the molecule itself. Briefly: crystal structure.

The term stoichiometry N denotes the number of molecules, sites or subunits per partner or assembly.

On to “RNase J K649Q (His-tagged) (from UniProt P56185 1-689) (enzyme)”, for which, in data set [1], the stoichiometry N was determined as 2. Turning to “RNase J K649A (His-tagged) (from UniProt P56185 1-689) (enzyme)”, in data set [2], the stoichiometry N was found to be 2. For “RhpA (His-tagged) (from UniProt O25029 1-492) (enzyme)”, the stoichiometry N in data set [3] is 1 RNase J:RhpA. As for “RNase J (His-tagged, wild type) (from UniProt P56185 1-689) (enzyme)”, in data set [3], the percent of the protein as dimer was 40%, the percent of the protein as monomer is 60% and the stoichiometry N worked out at 2. “RNase J D185A (His-tagged) (from UniProt P56185 1-689) (enzyme)”: the stoichiometry N in data set [4] came out at 2.

B1: RNase J residues 139-691 (crystallised construct) (domain or fragment, H. pylori strain 26695, UniProt P56185 137-689, looked up)
chain: SKASVKITPLGGLGEIGGNMMVIETPKSAIVIDAGMSFPKEGLFGVDILIPDFSYLHQIKDKIAGIIITHAHEDHIGATPYLFKELQFPLYGTPLSLGLIGSKFDEHGLKKYRSYFKIVEKRCPISVGEFIIEWIHITHSIIDSSALAIQTKAGTIIHTGDFKIDHTPVDNLPTDLYRLAHYGEKGVMLLLSDSTNSHKSGTTPSESTIAPAFDTLFKEAQGRVIMSTFSSNIHRVYQAIQYGIKYNRKIAVIGRSMEKNLDIARELGYIHLPYQSFIEANEVAKYPDNEILIVTTGSQGETMSALYRMATDEHRHISIKPNDLVIISAKAIPGNEASVSAVLNFLIKKEAKVAYQEFDNIHVSGHAAQEEQKLMLRLIKPKFFLPVHGEYNHVARHKQTAISCGVPEKNIYLMEDGDQVEVGPAFIKKVGTIKSGKSYVDNQSNLSIDTSIVQQREEVASAGVFVATIFVNKNKQALLESSQFSSLGLVGFKDEKPLIKEIQGGLEVLLKSSNAEILNNPKKLEDHTRNFIRKALFKKFRKYPAIICHAHSF
With B1, the binding result in data set [5] is “binds”.
